# Test results from article PMC8551276.
# Experiments:
# [1] = molecular target: HIV-1 HXB2 Env glycoprotein labelled with super folder GFP (GFPOPT) in the V4 loop of gp120, on pseudovirions (HIV-1 HXB2) (UniProt P04578); test: FRET or BRET
# [2] = molecular target: HIV-1 HXB2 Env glycoprotein labelled with super folder GFP (GFPOPT) in the V4 loop of gp120, on pseudovirions (HIV-1 HXB2) (UniProt P04578); test: FRET or BRET; single-virus Eapp traces, dwell times as CDF; virions on MT-4 T cells with 100 µg/mL PGT145
# [3] = molecular target: HIV-1 HXB2 Env glycoprotein labelled with super folder GFP (GFPOPT) in the V4 loop of gp120, on pseudovirions (HIV-1 HXB2) (UniProt P04578); test: FRET or BRET; single-virus Eapp traces, dwell times as CDF; mature virions engaged with living MT-4 T cells; room temperature
# [4] = molecular target: HIV-1 HXB2 Env glycoprotein labelled with super folder GFP (GFPOPT) in the V4 loop of gp120, on pseudovirions (HIV-1 HXB2) (UniProt P04578); test: FRET or BRET; single-virus Eapp traces (3 s per frame, 5 min), dwell times as cumulative distribution functions; mature virions in vitro, unliganded; room temperature
# [5] = molecular target: HIV-1 HXB2 Env glycoprotein labelled with super folder GFP (GFPOPT) in the V4 loop of gp120, on pseudovirions (HIV-1 HXB2) (UniProt P04578)
# [6] = molecular target: HIV-1 HXB2 Env glycoprotein labelled with super folder GFP (GFPOPT) in the V4 loop of gp120, on pseudovirions (HIV-1 group M subtype B, isolate HXB2) (UniProt P04578)
substance,measurement,setting,value
"HIV-1 HXB2 Env glycoprotein labelled with super folder GFP (GFPOPT) in the V4 loop of gp120, on pseudovirions (from UniProt P04578) (complex)","CDF average lifetime of the high FRET regime (Env-Env interactions), with sCD4",[1],16 s
same,"CDF average lifetime of the high FRET regime (Env-Env interactions), on T cells with PGT145",[2],10 s
same,"CDF average lifetime of the high FRET regime (Env-Env interactions), virions on MT-4 T cells",[3],53 s
same,CDF average lifetime of the high FRET regime (Env-Env interactions),[4],68 s
Human soluble CD4 recombinant protein (sCD4_(D1-D4)) (domain or fragment),CDF average lifetime of the closed Env conformation (0.12<Eapp<0.23) on mature virions with 10 µg/mL sCD4 (154 s without),[5],75 s
same,CDF average lifetime of the open Env conformation (Eapp<0.12) on mature virions with 10 µg/mL sCD4 (84 s without),[5],241 s
"anti-HIV-1 gp120 monoclonal, b12 (antibody)","CDF average lifetime of the closed Env conformation, virions on MT-4 T cells with 100 µg/mL b12 (63 s without)",[6],125 s
same,"CDF average lifetime of the open Env conformation, virions on MT-4 T cells with 100 µg/mL b12 (168 s without)",[6],61 s
